Data from patent US20220332804A1 (CSL INNOVATION, published 2022).

Experiments:
Assay in all cases: SPR, KD relative to WT C2;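 also: biacore SPR at 37 °C, anti-C2 mAbs captured via immobilised goat anti-human IgG, C2 alanine or serine surface mutants as analytes, 1:1 model fitted, double-referenced sensograms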
human C2 N403A = target: T1, human C2 N403A (human, UniProt P06681 21-752)
T1 sequence: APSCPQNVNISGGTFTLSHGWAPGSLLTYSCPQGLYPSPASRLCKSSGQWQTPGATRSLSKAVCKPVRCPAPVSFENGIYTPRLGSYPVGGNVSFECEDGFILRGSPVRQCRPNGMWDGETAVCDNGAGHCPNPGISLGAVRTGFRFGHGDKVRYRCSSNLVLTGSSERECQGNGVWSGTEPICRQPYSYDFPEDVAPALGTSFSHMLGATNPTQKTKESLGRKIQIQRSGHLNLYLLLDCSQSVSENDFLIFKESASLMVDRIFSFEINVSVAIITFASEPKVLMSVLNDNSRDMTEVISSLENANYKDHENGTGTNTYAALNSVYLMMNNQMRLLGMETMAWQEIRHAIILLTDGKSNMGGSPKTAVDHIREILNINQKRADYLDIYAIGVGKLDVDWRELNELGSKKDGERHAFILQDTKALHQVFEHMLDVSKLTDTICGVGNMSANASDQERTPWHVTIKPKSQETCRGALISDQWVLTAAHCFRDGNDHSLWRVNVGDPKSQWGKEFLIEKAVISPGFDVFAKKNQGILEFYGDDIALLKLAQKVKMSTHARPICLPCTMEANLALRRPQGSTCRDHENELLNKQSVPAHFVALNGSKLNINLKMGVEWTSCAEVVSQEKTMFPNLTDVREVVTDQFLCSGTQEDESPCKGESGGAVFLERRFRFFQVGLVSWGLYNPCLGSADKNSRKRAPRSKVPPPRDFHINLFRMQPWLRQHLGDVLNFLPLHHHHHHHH

human C2 A436S = target: T2, human C2 A436S (human, UniProt P06681 21-752)
T2 sequence: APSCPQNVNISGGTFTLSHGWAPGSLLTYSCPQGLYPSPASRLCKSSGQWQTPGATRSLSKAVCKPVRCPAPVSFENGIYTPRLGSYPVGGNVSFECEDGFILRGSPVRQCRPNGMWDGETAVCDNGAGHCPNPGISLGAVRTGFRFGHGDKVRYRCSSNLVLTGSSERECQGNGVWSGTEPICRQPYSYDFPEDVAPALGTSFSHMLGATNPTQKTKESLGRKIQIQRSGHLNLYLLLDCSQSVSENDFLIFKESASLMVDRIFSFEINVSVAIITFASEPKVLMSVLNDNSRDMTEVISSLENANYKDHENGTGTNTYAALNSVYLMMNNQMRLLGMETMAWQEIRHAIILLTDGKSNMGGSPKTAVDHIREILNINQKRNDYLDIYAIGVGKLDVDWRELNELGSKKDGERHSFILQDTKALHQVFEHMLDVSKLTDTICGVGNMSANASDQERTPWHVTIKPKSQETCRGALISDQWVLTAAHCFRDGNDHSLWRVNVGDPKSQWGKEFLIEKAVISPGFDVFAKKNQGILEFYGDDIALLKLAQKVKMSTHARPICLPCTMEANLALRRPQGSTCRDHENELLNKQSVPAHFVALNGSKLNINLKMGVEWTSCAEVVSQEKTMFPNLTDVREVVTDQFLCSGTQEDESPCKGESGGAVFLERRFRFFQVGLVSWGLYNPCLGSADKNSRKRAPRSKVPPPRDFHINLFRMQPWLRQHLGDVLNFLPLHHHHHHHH

human C2 S473A = target: T3, human C2 S473A (human, UniProt P06681 21-752)
T3 sequence: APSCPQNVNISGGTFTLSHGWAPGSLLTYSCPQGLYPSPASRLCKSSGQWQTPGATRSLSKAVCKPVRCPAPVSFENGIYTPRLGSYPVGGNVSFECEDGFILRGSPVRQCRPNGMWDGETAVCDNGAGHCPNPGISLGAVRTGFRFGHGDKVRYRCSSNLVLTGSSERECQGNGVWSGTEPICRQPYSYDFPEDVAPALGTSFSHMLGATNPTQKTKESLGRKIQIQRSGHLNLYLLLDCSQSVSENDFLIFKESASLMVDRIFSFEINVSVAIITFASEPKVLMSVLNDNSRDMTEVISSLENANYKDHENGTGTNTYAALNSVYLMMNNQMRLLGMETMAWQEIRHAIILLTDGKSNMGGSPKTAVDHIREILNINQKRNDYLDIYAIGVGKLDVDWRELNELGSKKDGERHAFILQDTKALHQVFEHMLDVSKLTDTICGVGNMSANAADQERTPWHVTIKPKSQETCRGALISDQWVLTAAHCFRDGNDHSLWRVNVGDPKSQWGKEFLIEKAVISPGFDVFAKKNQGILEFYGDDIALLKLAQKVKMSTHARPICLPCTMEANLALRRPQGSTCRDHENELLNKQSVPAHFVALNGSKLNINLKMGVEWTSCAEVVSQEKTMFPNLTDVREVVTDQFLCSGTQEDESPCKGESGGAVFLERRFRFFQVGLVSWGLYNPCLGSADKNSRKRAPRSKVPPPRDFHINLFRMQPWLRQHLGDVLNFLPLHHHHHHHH

human C2 T491A = target: T4, human C2 T491A (human, UniProt P06681 21-752)
T4 sequence: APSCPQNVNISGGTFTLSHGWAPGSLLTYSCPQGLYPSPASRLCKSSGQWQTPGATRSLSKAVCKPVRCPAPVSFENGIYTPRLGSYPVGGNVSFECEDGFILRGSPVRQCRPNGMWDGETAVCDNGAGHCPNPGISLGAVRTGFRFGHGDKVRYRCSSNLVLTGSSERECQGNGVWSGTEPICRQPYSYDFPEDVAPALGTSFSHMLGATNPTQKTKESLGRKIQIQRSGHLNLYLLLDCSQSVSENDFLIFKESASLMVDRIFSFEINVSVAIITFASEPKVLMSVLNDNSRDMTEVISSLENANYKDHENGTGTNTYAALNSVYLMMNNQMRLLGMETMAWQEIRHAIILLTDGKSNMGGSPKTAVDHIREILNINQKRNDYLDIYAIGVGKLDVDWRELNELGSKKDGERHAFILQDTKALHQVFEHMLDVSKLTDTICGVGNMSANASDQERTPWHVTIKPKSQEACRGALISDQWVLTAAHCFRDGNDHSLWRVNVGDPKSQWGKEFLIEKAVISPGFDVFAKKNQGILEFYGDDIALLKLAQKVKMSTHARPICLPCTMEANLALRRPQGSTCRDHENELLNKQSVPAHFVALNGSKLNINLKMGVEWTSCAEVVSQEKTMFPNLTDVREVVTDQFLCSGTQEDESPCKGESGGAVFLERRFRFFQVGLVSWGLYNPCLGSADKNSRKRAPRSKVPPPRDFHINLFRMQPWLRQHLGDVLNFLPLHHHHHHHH

B1: RF16-226 (antibody, human IgG4 S228P, lambda)
heavy: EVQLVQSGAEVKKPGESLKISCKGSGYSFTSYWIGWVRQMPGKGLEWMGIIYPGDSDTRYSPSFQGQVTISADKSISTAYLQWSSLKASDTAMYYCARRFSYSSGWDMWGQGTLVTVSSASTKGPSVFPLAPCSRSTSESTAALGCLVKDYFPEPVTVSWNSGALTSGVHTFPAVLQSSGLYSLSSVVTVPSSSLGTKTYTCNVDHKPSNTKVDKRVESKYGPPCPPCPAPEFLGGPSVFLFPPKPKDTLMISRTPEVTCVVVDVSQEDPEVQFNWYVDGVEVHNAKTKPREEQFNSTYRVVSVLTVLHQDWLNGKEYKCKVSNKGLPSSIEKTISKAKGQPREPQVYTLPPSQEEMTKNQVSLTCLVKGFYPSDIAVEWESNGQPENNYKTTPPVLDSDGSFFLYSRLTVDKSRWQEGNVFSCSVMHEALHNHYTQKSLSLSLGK
light: SYELTQPPSVSVSPGQTARITCSGDALTSKYVAWYQQKSGLAPLLVIYEDTRRPSGIPAKFSGSSSGSVATLTISGAHGDDEADYYCYSTDASGHQRVFGGGTKLTVLSQPKAAPSVTLFPPSSEELQANKATLVCLISDFYPGAVTVAWKADGSPVKAGVETTKPSKQSNNKYAASSYLSLTPEQWKSHRSYSCQVTHEGSTVEKTVAPTECS
notes: pH-dependent anti-C2 antibody from a phage display library; also called WT
In the case of B1, the Fold diff (human C2 N403A) is reported as 1 fold, the Fold diff (human C2 A436S) is reported as 1 fold and the Fold diff (human C2 S473A) is reported as 1 fold. The Fold diff (human C2 T491A) was 2 fold.
